According to CN116178551A (BEIJING DONGFANG BIOTECH CO LTD, dated 2023):

B1: 噬菌体单克隆抗体MA-1 (phage-displayed single-chain antibody MA-1) (scFv)
chain: EVKLEESGGGLVKPGGSLKLSCAASGFAFSDYDMSWVRQTPEKRLEWVATISSGGSYTYYPDSVKGRFTISRDNARNTLYLQMSSLRSEDTALYYCTSPRQVGLRKAFDYWGQGTTLTVSSDIVVTQSPALMSASPGEKVTMTCSASSSVSYMYWYQQKPRSSPKSWIYLTSNLASGVPARFSGSGSGTSYSLTISSMEAEDAATYYCQQWSSNPFTFGSGTKLEIKRAD
B2: MA-1鼠源抗体 (murine full antibody MA-1, mouse IgG2a / mouse Ck) (antibody, V domains shown)
VH: EVKLEESGGGLVKPGGSLKLSCAASGFAFSDYDMSWVRQTPEKRLEWVATISSGGSYTYYPDSVKGRFTISRDNARNTLYLQMSSLRSEDTALYYCTSPRQVGLRKAFDYWGQGTTLTVSS
VL: DIVVTQSPALMSASPGEKVTMTCSASSSVSYMYWYQQKPRSSPKSWIYLTSNLASGVPARFSGSGSGTSYSLTISSMEAEDAATYYCQQWSSNPFTFGSGTKLEIKR
notes: also called 抗NKG2A单克隆抗体MA-1; 鼠源全抗分子

Tests used:
huFc-NKG2A/CD94 = biological target: T1, huFc-NKG2A/CD94 (UniProt P26715 94-233; Q13241 32-179, limits assumed); assay: phage supernatant ELISA, huFc-NKG2A/CD94 against huFc-NKG2C/CD94 and huFc-NKG2E/CD94 (selection criterion met by MA-1)
T1 construct: The construct is named only, and its architecture is not described; The Fc is placed N-terminal following the printed name; not shown: human Fc (huFc)

huFc-NKG2E/CD94 = biological target: T2, huFc-NKG2E/CD94 (UniProt Q07444 94-240; Q13241 32-179, limits assumed); assay: ELISA, serial dilution of MA-1 on huFc-NKG2E/CD94, anti-mouse Ig-HRP
T2 construct: The construct is named only, and its architecture is not described; not shown: human Fc (huFc)

huFc-NKG2C/CD94 = biological target: T3, huFc-NKG2C/CD94 (UniProt P26717 94-231; Q13241 32-179, limits assumed); assay: ELISA, serial dilution of MA-1 on huFc-NKG2C/CD94, anti-mouse Ig-HRP
T3 construct: The construct is named only, and its architecture is not described; not shown: human Fc (huFc)
T3 sequence (P26717 94-231 limits assumed, chain 1 of 2): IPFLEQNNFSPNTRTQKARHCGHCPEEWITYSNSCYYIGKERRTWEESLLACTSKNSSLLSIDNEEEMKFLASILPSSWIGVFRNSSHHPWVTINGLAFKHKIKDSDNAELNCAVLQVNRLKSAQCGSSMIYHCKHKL
T3 sequence (Q13241 32-179 limits assumed, chain 2 of 2): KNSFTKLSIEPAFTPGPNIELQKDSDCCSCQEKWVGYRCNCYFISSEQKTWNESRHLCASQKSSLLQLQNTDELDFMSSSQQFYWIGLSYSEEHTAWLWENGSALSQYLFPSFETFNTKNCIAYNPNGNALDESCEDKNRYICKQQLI

T2 sequence (Q07444 94-240 limits assumed, chain 1 of 2): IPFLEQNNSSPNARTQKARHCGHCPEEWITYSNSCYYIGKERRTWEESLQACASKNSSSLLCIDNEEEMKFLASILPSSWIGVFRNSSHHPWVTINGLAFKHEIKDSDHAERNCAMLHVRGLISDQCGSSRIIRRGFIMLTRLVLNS
T2 sequence (Q13241 32-179 limits assumed, chain 2 of 2): as the sequence (Q13241 32-179 limits assumed, chain 2 of 2) above
T1 sequence (P26715 94-233 limits assumed, chain 1 of 2): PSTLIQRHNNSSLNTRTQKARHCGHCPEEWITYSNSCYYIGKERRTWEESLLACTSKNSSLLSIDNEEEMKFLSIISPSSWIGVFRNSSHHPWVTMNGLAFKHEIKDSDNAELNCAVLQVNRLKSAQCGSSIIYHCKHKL
T1 sequence (Q13241 32-179 limits assumed, chain 2 of 2): as the sequence (Q13241 32-179 limits assumed, chain 2 of 2) above

Binder | OD450nm读值 with NKG2A relative to NKG2C/E (huFc-NKG2A/CD94) [fold] | binding result (huFc-NKG2E/CD94) | binding result (huFc-NKG2C/CD94)
B1 | > 3 | – | –
B2 | – | no binding | no binding
